Test results taken from patent publication US20120107364A1 (ACTGEN, published 2012).

Legend:
Test in all cases: flow cytometry on Ba/F3 cells expressing the truncated PODXL2
[1] = target: T1, PODXL2, positions 1 to 340 (human, UniProt O00592 23-372)
T1 construct: One of the 14 C-terminal truncations; Expressed on Ba/F3 cells; also called R340
T1 sequence: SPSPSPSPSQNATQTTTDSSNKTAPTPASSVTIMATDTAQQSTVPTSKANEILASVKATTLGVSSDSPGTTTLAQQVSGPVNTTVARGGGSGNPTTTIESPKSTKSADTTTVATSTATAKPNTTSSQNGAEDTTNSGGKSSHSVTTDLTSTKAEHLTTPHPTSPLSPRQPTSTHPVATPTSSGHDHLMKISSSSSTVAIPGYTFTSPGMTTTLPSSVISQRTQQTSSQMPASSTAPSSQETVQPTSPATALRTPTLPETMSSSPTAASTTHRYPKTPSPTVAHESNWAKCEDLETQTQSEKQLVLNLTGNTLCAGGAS
Protocol: (§1) To each sample of the cell suspension, 50 μl of the hybridoma culture supernatant or 2-μg/ml of the purified antibody (hereinafter, referred to as an “antibody solution”) was added, and the antibody was reacted with the cells. As an isotype control of the antibody solution, a wash buffer containing 2 μg/ml of each of mouse IgG1 (BioLegend, 400412), mouse IgG2a (BioLegend, 400224), and mouse IgG2b (BioLegend, 400324) was used. The hybridoma culture supernatant was reacted with the target cells at room temperature for 30 minutes, followed by centrifugation at 700×g for 2 minutes. Then, a culture supernatant was removed. Further, 100 μl of a wash buffer was added, followed by centrifugation at 700×g for 2 minutes again. A supernatant was removed. Then, the cells were washed.
(§2) Next, to the cell pellets after the washing, 50 μl of Goat anti-mouse IgG, F(ab′) 2-PE (PE=phycoerythrin, Beckman Coulter, IM0855) diluted 200-fold with a wash buffer was added as a secondary antibody for detection, and reacted in the dark at room temperature for 30 minutes. The reaction was followed by centrifugation at 700×g for 2 minutes. A supernatant was removed. Further, 100 μl of a wash buffer was added, followed by centrifugation at 700×g for 2 minutes again. A supernatant was removed. Then, the cells were washed. Thereafter, the cells were suspended in an appropriate amount of a wash buffer. The reactivity between the antibody and the cells was analyzed by a flow cytometer (Beckman Coulter, FC500 MPL).
(§3) Thereafter, by the same method as in Example 1 (4) (the virus packaging and thereafter), Ba/F3 cells containing the PODXL2 gene sequences of various chain lengths were prepared. Further, by the same method as in Example 4, the reactivity between the ACT36-27_{—}5D1 antibody and the Ba/F3 cells expressing the PODXL2 molecules of various chain lengths was analyzed by a flow cytometer (FIG. 10).

[2] = target: T2, PODXL2, positions 1 to 300 (human, UniProt O00592 23-332)
T2 construct: Shortest of the 14 C-terminal truncations; Expressed on Ba/F3 cells; also called R300
T2 sequence: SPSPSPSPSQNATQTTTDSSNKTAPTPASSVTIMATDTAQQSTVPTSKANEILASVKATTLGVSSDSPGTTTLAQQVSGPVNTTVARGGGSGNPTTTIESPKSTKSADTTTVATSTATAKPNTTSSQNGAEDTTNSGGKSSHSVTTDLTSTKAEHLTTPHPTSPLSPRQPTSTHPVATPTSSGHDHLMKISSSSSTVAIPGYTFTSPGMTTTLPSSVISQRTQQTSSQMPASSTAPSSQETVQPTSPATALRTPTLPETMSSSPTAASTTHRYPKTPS
Protocol: as §1, §2, §3

[3] = target: T3, PODXL2, positions 1 to 310 (human, UniProt O00592 23-342)
T3 construct: One of the 14 C-terminal truncations; Expressed on Ba/F3 cells; also called R310
T3 sequence: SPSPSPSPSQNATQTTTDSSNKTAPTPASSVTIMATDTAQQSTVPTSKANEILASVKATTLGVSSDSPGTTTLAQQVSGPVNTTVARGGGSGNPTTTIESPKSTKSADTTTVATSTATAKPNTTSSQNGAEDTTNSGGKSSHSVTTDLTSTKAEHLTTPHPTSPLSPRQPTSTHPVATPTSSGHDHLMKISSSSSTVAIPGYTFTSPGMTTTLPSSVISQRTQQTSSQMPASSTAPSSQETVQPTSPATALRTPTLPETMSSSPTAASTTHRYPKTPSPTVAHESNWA
Protocol: as §1, §2, §3

[4] = target: T4, PODXL2, positions 1 to 420 (human, UniProt O00592 23-452)
T4 construct: Encoded as positions 1-420 in pMX-SST and expressed on Ba/F3 cells; The vector-encoded part is not described; also called R420
T4 sequence: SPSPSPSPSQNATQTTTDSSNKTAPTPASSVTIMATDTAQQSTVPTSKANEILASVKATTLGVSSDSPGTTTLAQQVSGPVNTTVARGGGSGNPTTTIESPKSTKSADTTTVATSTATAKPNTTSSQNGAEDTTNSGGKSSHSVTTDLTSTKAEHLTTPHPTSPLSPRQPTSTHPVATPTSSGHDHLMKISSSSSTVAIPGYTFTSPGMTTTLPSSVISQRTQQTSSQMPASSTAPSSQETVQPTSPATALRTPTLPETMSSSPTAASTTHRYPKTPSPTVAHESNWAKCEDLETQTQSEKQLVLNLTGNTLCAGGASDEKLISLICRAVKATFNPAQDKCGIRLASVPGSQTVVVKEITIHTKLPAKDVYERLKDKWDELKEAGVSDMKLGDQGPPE
Protocol: as §1, §2, §3

[5] = target: T5, PODXL2, positions 1 to 390 (human, UniProt O00592 23-422)
T5 construct: One of the 14 C-terminal truncations in 10-residue steps; Expressed on Ba/F3 cells; also called R390
T5 sequence: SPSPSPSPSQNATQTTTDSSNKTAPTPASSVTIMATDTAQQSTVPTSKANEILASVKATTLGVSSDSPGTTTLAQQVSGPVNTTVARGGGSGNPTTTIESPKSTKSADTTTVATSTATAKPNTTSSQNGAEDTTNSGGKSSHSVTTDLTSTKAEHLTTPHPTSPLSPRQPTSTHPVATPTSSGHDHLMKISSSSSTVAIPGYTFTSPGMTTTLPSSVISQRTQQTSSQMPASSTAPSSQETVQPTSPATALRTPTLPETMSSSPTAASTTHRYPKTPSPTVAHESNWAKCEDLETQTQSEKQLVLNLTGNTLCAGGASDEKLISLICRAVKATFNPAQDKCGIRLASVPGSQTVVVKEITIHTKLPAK
Protocol: as §1, §2, §3

binding result [1]: no binding | binding result [2]: no binding | binding result [3]: no binding | binding result [4]: binds | binding result [5]: no binding
B1: ACT36-27-5D1 antibody (antibody, V domains shown)
VH: EVQLQQSGPELVKPGASVKMSCKASGYTFTSYVMHWVKQKPGQGLEWIGYIHPYNDGIKYNEKFKGKATLTSDKSSSTAYMDLSSLTSEDSAVYYCARSWDWYFDVWAAGTTVTVSS
VL: QIVLTQSPAIMSASPGEKVSMTCSASSSVSYMHWYQQKSGTSPKRWIYDTSKLASGVPARFSGSGSGTSYSLTISSMEAEDAATYYCLQWSSNPPTFGGGTKLE
notes: also called anti-PODXL2 antibody ACT36-27-5D1; anti-ACT36-27-5D1 monoclonal antibody
